Literature values as cited in publication PMC3090270.

Target: PKA RII alpha D/D (UniProt P12367)
Sequence (P12367 2-45): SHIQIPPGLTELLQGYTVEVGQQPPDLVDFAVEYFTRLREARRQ

D-AKAP2 AKB, sequence (O43572 623-649): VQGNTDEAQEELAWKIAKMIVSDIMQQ

In the case of D-AKAP2 AKB (from UniProt O43572), the Kd is given as 2 nM.
